Test system: K4 kissing-loop RNA reporter
Assay: apparent KD of K4 kissing-loop reporter; higher = weaker reporter binding
Details: Eterna round: R107
Experimental: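 RNA-MaP round R107: designed RNA switches with theophylline, tryptophan, arginine or FMN aptamers are transcribed on-chip within common flanks. They are titrated with a labelled K4 kissing-loop RNA reporter in RNA-MaP buffer (100 mM Tris pH 7.5, 80 mM KCl, 4 mM MgCl2), without ligand or with the indicated ligand. Median apparent KD per design.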

[1] = input ligand: theophylline 20 uM
[2] = input ligand: tryptophan 2.4 mM
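Further: bound reporter read as fluorescence of individual clusters on recovered sequencing chips by microscopy, with normalized cluster intensities fitted with a binding model.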

Sequence | apparent KD of K4 kissing-loop reporter (input ligand: FMN 200 uM) | apparent KD of K4 kissing-loop reporter (input ligand: arginine 13.2 mM) | apparent KD of K4 kissing-loop reporter (input ligand: none) | apparent KD of K4 kissing-loop reporter [1] | apparent KD of K4 kissing-loop reporter [2]
AUUUUCAAUUUAUUAUAUAACUUUUCAGAAGGAGCGUGGAAGUUCACAGGUAGGUCGCUGAAUAUAGGACUAGUGAUGUUAGUUA [JR_Nu_SSArginiA_Sub023] | 284 nM | 247 nM | 279 nM | 268 nM | 258 nM
AUUUUGAGUGAUGUUCAUAUCUAUUCUGAAGGAGCGCUAAAUAAGGCAGGUAGGUCGCGGAAUAUAUAUAUAUAUAUAUAUAUAU [KL-SSArg-A30] | 538 nM | 809 nM | 711 nM | 624 nM | 537 nM
AUUUUGGUUUAGAGUGAUGUUCCUUGUAUUCGAGGACCGGUACGGCCGCCACUCGAAUAGAAAAGAAAAGAAAUGAGUGAUGUUU [BDazzled - #4 SS Tryptophan A] | 519 nM | 267 nM | 362 nM | 357 nM | 356 nM
AUUUUUUUGUCAGGAUAUUAGUAUGCAUUUAGUUUGUUAGUGAUGUUGAUAUUUUGUUUAUGUAUUUAAGAAGGGAUUUAGCGGU [iiikmullin] | 384 nM | 217 nM | 335 nM | 340 nM | 306 nM
CAACAGCUUACGGCCGCCACUCCUUUAUAUGGUGCGCACCGUUGAGCUCUAGUGAUGUUGGUGCCGAGGACCGGGUAGGAAAGUA [theeternabot_sameState_KL_Trp_B_31] | 468 nM | 245 nM | 331 nM | 448 nM | 412 nM
CACCUAGGUACGGCCGCCACUAGAAGUGAUGUUUCGUCUGGUUCCGCAUUACGUGUACUUUCUUAUAGGACCGGGUAGCAAAUAG [theeternabot_exclusion_KL_Trp_B_3] | 548 nM | 288 nM | 563 nM | 258 nM | 311 nM
CACCUGCCAUAAGGAUAUUCGUCUUUGCGCUUCCAGUGAUGUUGGAGAUCGCAACACAUGGUCAUAGAAGAAGGUAUGGUAUUAA [theeternabot_sameState_KL_FMN_B_35] | 154 nM | 186 nM | 195 nM | 191 nM | 186 nM
CACUUACGUAGUGAUGUUACGAUCUCUGAUACCAGACAACUCUAAGUCCCUUGGCAGCAGUCAUUUUGCUUAUAAUUUACUCAAA [JR_ExcTheophyA_Sub015] | 657 nM | 556 nM | 786 nM | 646 nM | 508 nM
CAUACGCAUGGAGGAUAUGAGAUUUCUCAUAUUAUUGCUUAUUCUCAGUGAUGUUGGGAUUUAAGCUCAGAAGGCCAUGUGUAUG [Ex FMN B 10] | 187 nM | 88.4 nM | 98 nM | 94.2 nM | 85.8 nM
CAUAGACAAGUGAUGUUUGUCAUAACCGAAGGAGCGUCUUUAAAGACAGGUAGGUCGCGGAUUAAUUAAGUUAUGAUUCUUUUUA [JR_SSArginiA_Sub017] | 630 nM | 572 nM | 661 nM | 642 nM | 531 nM
CAUAGGAAACUAUGUUUCUCUCUUACUGAAGGAGCGCGUGAAAACGCAGGUAGGUCGCAGAUUUUGAGAGUGAUGUUCUCAAUAA [Ex Arginine A K4 18] | 128 nM | 167 nM | 139 nM | 155 nM | 91.7 nM
CAUAGUCACUGUGAUACCAGCCCGACUCUUGGCGUCUGCGGUCAAAGCCCAGUGAUGUUGGGCCCUUGGCAGCAUGGCGGCAACA [Xelexebi] | 136 nM | 114 nM | 132 nM | 112 nM | 120 nM
CAUUCAGUGAUGUUGGAAGGCGAGCGGGAUACCAGCGGAGACUCACGCCCUUGGCAGCCCAUAUAUCCCAGGUAGAUAAUAGUUC [Same State - Theophylline A (Freestyle 5)] | 276 nM | 117 nM | 217 nM | 219 nM | 201 nM
CCAAACAGUUACGAUACCAGUCUAAUAUAUUUGAUCAAAACCCUCGCCGAGUGAUGUUCGGACCCUUGGCAGCGUCUGGGACAGG [zzbtmullin] | 479 nM | 378 nM | 500 nM | 414 nM | 371 nM
CCAACAACGAGUGAUGUUCGUUGAUCAGAAGGAGCGUCAAUAAUGACAGGUAGGUCGCUGAUAAUUGGAAAUAGGGCAAUAGCUU [Same State Arginine A GF12] | 110 nM | 113 nM | 115 nM | 120 nM | 105 nM
CCAGUGAUAAACGAUACCAGAAAUACCUUAUUUGGCCGGCGGAGUGAUGUUCCUAAUACUUUCCCUUGGCAGCGUCGAAUGCUAG [theeternabot_sameState_KL_Theo_B_16] | 43.8 nM | 61.1 nM | 46 nM | 99 nM | 42.3 nM
CCAUCGCUAUUCGAUACCAGCUACUUAGUGAUGUUAAGUUAAAAUCAAUUGUAGAUUGAAAGCCCUUGGCAGCGAAUAGUGAUGG [Theophylline B K4 21] | 157 nM | 123 nM | 139 nM | 83.8 nM | 135 nM
CCAUCGCUAUUCGAUACCAGCUCCUUAGUGAUGUUAAGGUUUUACCCACUGUAGGUGGGAAGCCCUUGGCAGCGAAUAGUGAUGG [Theophylline B K4 28] | 982 nM | 872 nM | 1150 nM | 538 nM | 1030 nM
CCAUCGCUAUUCGAUACCAGUCAAAAUAAAAUAAUAAAUCUGCAAAGGAGUGAUGUUCCAGACCCUUGGCAGCGAAUAGUGAUGG [Theophylline B K4 2] | 746 nM | 552 nM | 834 nM | 709 nM | 723 nM
CCAUCGCUAUUCGAUACCAGUCAUCAAAUCUUUGGUUUGAUAAAGGAGUGAUGUUCCCAAGACCCUUGGCAGCGAAUAGUGAUGG [Theophylline B K4 10] | 252 nM | 212 nM | 224 nM | 175 nM | 230 nM
CCAUUCUUUUACGAUACCAGUUUUAUUUAGUUAUUCAUAACCCUUGCCGAGUGAUGUUCGGACCCUUGGCAGCGUUUGCGAGAGG [zaadvmullin] | 286 nM | 299 nM | 355 nM | 411 nM | 272 nM

Sequence | apparent KD of K4 kissing-loop reporter (input ligand: FMN 200 uM) | apparent KD of K4 kissing-loop reporter (input ligand: arginine 13.2 mM) | apparent KD of K4 kissing-loop reporter (input ligand: none) | apparent KD of K4 kissing-loop reporter [1] | apparent KD of K4 kissing-loop reporter [2]
CCGACUGCAGGAAGGAGCGGCGGUUGGAGUGAUGUUCCAGGUAGUGAUGUUACCAAGAUCCGCCAGGUAGGUCGCCUGUUGCUCA [Same State Arginie B GF 12] | 156 nM | 106 nM | 115 nM | 148 nM | 125 nM
CCGCCAUCGUCAGAUACCAGGCUGAUGGCGGUAACCGCCAAGCGAGUGAUGUUCGCAUCAGUCCCUUGGCAGCUGACGAAGACUG [#16 K4 Theophylline B Same State] | 176 nM | 86.9 nM | 190 nM | 283 nM | 133 nM
CCGGGCGGCUGAAGGAGCGGGCGGGCCCGAGUGAUGUUCGGGUGGACCGUGAGGUCCGGUGCCCAGGUAGGUCGCGGUUCCGCCC [#2 Same State - Arginine B Attempt #8 (HarryS)] | 247 nM | 183 nM | 162 nM | 296 nM | 238 nM
CCGUCGACAAGCGCCAUCGUCUACGUCAAUAAGGAUAUCAUCAAGGUGAGAAGGUAUGACAACCGGAGUGAUGUUCCAGGGCGAA [theeternabot_sameState_KL_FMN_A_5] | 506 nM | 362 nM | 368 nM | 304 nM | 346 nM
CCUAUCUCAUACGAUACCAGUCCGAGUGAUGUUCGAACAGGUUUUAGUUUGCCAUAUAAUGACCCUUGGCAGCGUAUGGGAUAGG [Ex Theophylline B K4 13] | 167 nM | 123 nM | 163 nM | 130 nM | 137 nM
CCUGCAGCUGUUACCGAGGGAUGCUACGGACGAGGACCGGUACGGCCGCCACUCGCCAGUGAUGUUGGUGAGGGAGGACGUUACU [KL-XTryp-A21] | 137 nM | 107 nM | 109 nM | 103 nM | 107 nM
CCUGUGUGUGAAGGAUAUAUUUCGCAUUAAAACUAGUGAUGUUGGUAAAUGGCACAAUCCGUAGCAAUAGAAGGUCACUCCGGAA [theeternabot_sameState_KL_FMN_B_22] | 499 nM | 445 nM | 793 nM | 498 nM | 524 nM
CCUUCCUAAAACGAUACCAGUUUCUAUCCUCAAUCCAGUGAUGUUGAAUUGAGCUCACAGAACCCUUGGCAGCGUCGCUAUACGG [theeternabot_sameState_KL_Theo_B_39] | 214 nM | 202 nM | 195 nM | 180 nM | 190 nM
CCUUCUCUUGAUAGUGAUGUUAUCAAGGGCAAGGAUAUCAUCUUAAUGAGAAGGUGUCCUUGAUAACAUGGAGGUCUGAAACAGA [Omei KL FMN A Exc C v5] | 108 nM | 186 nM | 229 nM | 321 nM | 335 nM
CGACACUCAGCGGCCGCCACUGAGCUAUAUUUUGCAGGUGCCCGAGUAAGUGAUGUUUACUUCGUCAGGACCGGGCUGGUUUCAA [theeternabot_sameState_KL_Trp_B_20] | 514 nM | 298 nM | 609 nM | 294 nM | 351 nM
CGAGUGAUGUUCGAAGAGUUGUUAAGCGAUACCAGCUAGGAAACUGGCCCUUGGCAGCGUAAUAAGUAAAUAAAUAAAUGAUCAC [whbob_Ex_Theo_A_th63] | 287 nM | 399 nM | 442 nM | 486 nM | 337 nM
CGAGUGAUGUUCGAAGAGUUGUUAAGCGAUACCAGCUAGGAGACUGGCCCUUGGCAGCGUAAUAAGUUAAUAAAUAAAUGAUCAC [whbob_Ex_Theo_A_th65] | 293 nM | 384 nM | 360 nM | 506 nM | 285 nM
CGAGUGAUGUUCGUUCGUUUAUUUCUUUGACAGGAUAUGCGGAAACGCAGAAGGGUCACCUUUGAGUUAAAGGAAUUUACGUUAU [Ex FMN A 26] | 572 nM | 509 nM | 599 nM | 539 nM | 483 nM
CGAGUGAUGUUCGUUUUAAAAUUUUUUUGACAGGAUAUGCGGAAACGCAGAAGGGUCACCUUUGAGUUAAAAGAAAUUAAAUUUU [Ex FMN 16] | 175 nM | 223 nM | 198 nM | 224 nM | 166 nM
CGAUGGAUGGCAGGAUAUAGACAUUGAGUGAUGUUCGAUGAUUAUCCAUAUUCCCGUCACCUAUGACUAGAAGGGCCAUCCAUCG | 236 nM | 485 nM | 464 nM | 587 nM | 577 nM
CGCAAAUCGUCGGCCGCCACUGCAUUUGAACGCUAAUUGUCUCUGCGCGGAGUGAUGUUCUGUGCCAGGACCGGGACGGAUUUCG [theeternabot_exclusion_KL_Trp_B_21] | 446 nM | 381 nM | 517 nM | 499 nM | 146 nM
CGCAAGCAGCCAGUGAUGUUGGCCGCCUUGCGAGGACCGGUACGGCCGCCACUCGAAGGCGGCUACUGGUAAUCCGUCUAACGGA [Lareus] | 84.6 nM | 80.9 nM | 86.8 nM | 68.4 nM | 89.9 nM
CGCAGUGAUGUUGCGAGUAACUACAGGGAAGGAGCGUGCUAAAGCACAGGUAGGUCGCCCAUGCAGUGAUGUUGUGUAAAAGGGU [Excluson Arginine A GF 13] | 102 nM | 98.6 nM | 106 nM | 118 nM | 90.8 nM
CGCAGUGAUGUUGCGAGUAGCUACAGGGAAGGAGCGCUCUAGUGAGCAGGUAGGUCGCCCACGCAGUGAUGUUGCGUCAUAGGGU [Exclusion Arg A GF9] | 116 nM | 110 nM | 113 nM | 113 nM | 101 nM
CGCAGUGAUGUUGCGAGUAGCUACAGGGAAGGAGCGUGCUAGAGCACAGGUAGGUCGCCCAGUGGCAGUGAUGUUGCCAACGGGU [Exclusion ARginine A GF 18] | 132 nM | 110 nM | 110 nM | 104 nM | 109 nM
CGCGCGCGCGCGCGCGCGCGCGAAAAUGAUACCAGUAUAUAAGAAUACCCUUGGCAGCAUAAGAAAGAUAUAGUGAUGUUGUAUA [SSTheophA.A] | 212 nM | 76.5 nM | 279 nM | 316 nM | 161 nM

Reference: the supplement of paper PMC9170038
